The record followed here is PMC10104637, “Phosphorylation of USP29 by CDK1 Governs TWIST1 Stability and Oncogenic Functions” (Advanced Science, 2023).

The assay has as its target T1, GST-USP29 (UniProt Q9HBJ7 1-922).
T1 construct: USP29 cloned into pGEX-4T-1; also called purified GST-USP29; GST-USP29 WT; source: E. coli BL21, purified (Pierce Glutathione Agarose)
T1 sequence (looked up): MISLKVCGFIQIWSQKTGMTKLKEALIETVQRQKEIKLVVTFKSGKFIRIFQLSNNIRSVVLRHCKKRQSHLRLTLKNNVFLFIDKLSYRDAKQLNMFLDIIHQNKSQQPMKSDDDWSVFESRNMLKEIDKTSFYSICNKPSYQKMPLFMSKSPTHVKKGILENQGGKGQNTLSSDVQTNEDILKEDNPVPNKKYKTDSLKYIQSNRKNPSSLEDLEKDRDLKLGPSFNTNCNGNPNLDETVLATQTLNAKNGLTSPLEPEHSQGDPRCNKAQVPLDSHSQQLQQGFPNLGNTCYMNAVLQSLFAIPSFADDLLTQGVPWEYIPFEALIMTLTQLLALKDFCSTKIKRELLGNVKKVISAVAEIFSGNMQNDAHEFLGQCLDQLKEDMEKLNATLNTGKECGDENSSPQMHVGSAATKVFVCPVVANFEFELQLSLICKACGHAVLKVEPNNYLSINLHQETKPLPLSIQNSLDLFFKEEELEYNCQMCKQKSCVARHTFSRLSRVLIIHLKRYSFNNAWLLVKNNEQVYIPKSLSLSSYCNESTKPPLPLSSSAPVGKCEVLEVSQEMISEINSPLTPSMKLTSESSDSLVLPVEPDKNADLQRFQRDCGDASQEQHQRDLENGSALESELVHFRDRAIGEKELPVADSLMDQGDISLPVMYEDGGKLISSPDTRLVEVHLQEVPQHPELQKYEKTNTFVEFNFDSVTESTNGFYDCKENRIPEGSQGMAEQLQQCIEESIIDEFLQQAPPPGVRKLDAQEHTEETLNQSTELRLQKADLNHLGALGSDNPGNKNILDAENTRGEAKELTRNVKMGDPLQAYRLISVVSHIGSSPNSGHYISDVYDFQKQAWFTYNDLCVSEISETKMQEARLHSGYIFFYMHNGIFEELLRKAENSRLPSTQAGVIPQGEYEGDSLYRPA
Nature of the assay: pull-down; GST or GST-USP29 bound to Pierce Glutathione Agarose incubated with the purified His-tagged protein overnight at 4 °C; beads washed four times with PBS; western blot. To be noted: both partners purified. (In general: A western blot detects proteins with antibodies after separation by electrophoresis.)

B1: His-TWIST1 (natural protein, UniProt Q15672 1-202, looked up)
chain: MMQDVSSSPVSPADDSLSNSEEEPDRQQPPSGKRGGRKRRSSRRSAGGGAGPGGAAGGGVGGGDEPGSPAQGKRGKKSAGCGGGGGAGGGGGSSSGGGSPQSYEELQTQRVMANVRERQRTQSLNEAFAALRKIIPTLPSDKLSKIQTLKLAARYIDFLYQVLQSDELDSKMASCSYVAHERLSYAFSVWRMEGAWSMSASH
notes: TWIST1 cloned into PET28A; also called PET28A-TWIST1; source: E. coli BL21, purified
In the case of B1, the binding result is listed as “binds”.
